Measured values: patent US20020133001A1, “Therapeutic agents and methods of use thereof for treating an amyloidogenic disease” (Praecis Pharmaceuticals Inc., priority 2000, published 2002)

B1: Fc domain without a β-amyloid fragment: control protein: mouse IgG1 Fc region with no amyloid binding sequence (protein)
chain: VPRDCGCKPCICTVPEVSSVFIFPPKPKDVLTITLTPKVTCVVVDISKDDPEVQFSWFVDDVEVHTAQTQPREEQFNSTFRSVSELPIMHQDWLNGKEFKCRVNSAAFPAPIEKTISKTKGRPKAPQVYTIPPPKEQMAKDKVSLTCMITDFFPEDITVEWQWNGQPAENYKNTQPIMNTNGSYFVYSKLNVQKSNWEAGNTFTCSVLHEGLHNHHTEKSLSHSPGK

Experiments:
[1] = target: T1, Aβ fibrils (aged Aβ 1-40) (Homo sapiens, UniProt P05067); experiment: Fibril binding assay; settings: compound at 2 μM-200 fM dilutions; FIG. 9
T1 construct: 200 μM Aβ 1-40 peptide solution; purchased Bachem (Torrance, Calif.)
Experimental: The ability of a compound of the invention to modulate (e.g., inhibit or promote) the aggregation of natural β-AP when combined with the natural β-AP was examined using the Fibril binding assay. Natural β-AP (β-AP1-40) for use in the aggregation assays is commercially available from Bachem (Torrance, Calif.).
The following materials are needed for the Fibril binding assay: Millipore multifilter apparatus; 12×75 glass tubes; GF/F 25 mm glass filters; PBS/0.1% tween 20 at 4° C. (PBST); Aβ fibrils; radioactive compound; nonradioactive compound; Eppendorf repeat pipettor with tips; labels; forceps; and vacuum.
In this assay, each sample was run in triplicate. […]
The radioactively labeled compound was prepared using standard radioactive safety protocols by making a dilution into a PBS/0.1% tween-20 solution such that there was a final concentration of 20,000 dpm per 100 μL. […] The samples were covered with parafilm and incubated at 37° C. inside plastic radioactivity bags overnight.
To filter the samples, the filters were pre-wetted in a small volume of PBST. […] One minute counts were recorded, the data was plotted, and the Prism program (GraphPAD) was used to analyze the graph, according to the manufacturer's instructions.

amyloid plaques [2] = experiment: Immunohistochemistry: staining of amyloid plaques in brain sections with conditioned medium containing fusion proteins; assay type: binding; settings: 20-22 week mice transgenic for Swedish mutation APP and presenilin M146L; COS conditioned medium; developed with anti-mouse antibody
Experimental: Twenty micron serial coronal brain sections were prepared from 20-22 week mice transgenic for both the Swedish mutation of amyloid precursor protein and presenilin M146L (Ref.). All incubations were performed at room temperature. Sections were washed once in 100 mM Tris, pH 7.4 (Tris buffer), incubated in 70% formic acid for 3 minutes, then washed three times in Tris buffer. Endogenous peroxidase activity was blocked by incubating for 20 minutes in 10% methanol, 3% hydrogen peroxide in 40 mM Tris, pH 7.4. Sections were washed three times in Tris buffer then incubated in 0.85% NaCl, 0.1% Triton X-100, 100 mM Tris pH 7.4 (Tris buffer A) for 5 minutes followed by […]) for 15 minutes. Sections were incubated overnight in conditioned medium from cells expressing secreted fusion proteins or anti-β-amyloid polyclonal antibody diluted 1/1000 in Tris buffer B. Sections were washed twice in Tris buffer A and once in Tris buffer B then incubated with biotin-conjugated anti-mouse antibody raised in donkey from Jackson Laboratories diluted 1/500 in Tris buffer A for 1 hour. Sections were washed twice in Tris buffer A and once in Tris buffer B then incubated with avidin-conjugated horse radish peroxidase using the ABC Immunohistochemistry kit from Vector Laboratories. […]

amyloid plaques [3] = experiment: In vivo clearing of amyloid plaques in a mouse model of Alzheimer's disease; settings: direct infusion into the cerebral cortex in one hemisphere; APP Swedish/presenilin M146L transgenic mouse
Experimental: The ability of Aβ(16-30)-Fc to clear amyloid plaques in a mouse model of Alzheimer's disease was assessed. The fusion protein was administered to a mouse transgenic for both the Swedish mutation of amyloid precursor protein and presenilin M146L by direct infusion into the cerebral cortex in one hemisphere. The mouse was sacrificed and the amount of amyloid in brain sections was determined by Thioflavin S staining.

amyloid plaques, sequence (P05067 672-711 limits assumed): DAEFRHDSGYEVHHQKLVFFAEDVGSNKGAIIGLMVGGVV
T1 sequence (P05067 672-711): as the sequence (P05067 672-711 limits assumed) above

| Molecule | inhibition of Aβ aggregation (Fibril binding assay) [1] | staining of amyloid plaques in coronal brain sections (amyloid plaques [2]) | plaque burden at the site of infusion compared to the control hemisphere (Thioflavin S staining) (amyloid plaques [3]) |
| --- | --- | --- | --- |
| PPI-1019: compound tested in the Fibril binding assay; structure not given | effective inhibitors of Aβ aggregation |  |  |
| B1 |  | No amyloid plaques were detected | no difference |
